These are literature values, as cited in patent US20040096894A1, “Crystal structures of P- selectin, P- and E-selectin complexes, and uses thereof” (priority 2000, published 2004).

This series has as its target T1, full-length neutrophil PSGL-1 (Homo sapiens, UniProt Q14242).
T1 construct: to full-length neutrophil PSGL-1; host or cells: neutrophils
T1 sequence (Q14242 42-412): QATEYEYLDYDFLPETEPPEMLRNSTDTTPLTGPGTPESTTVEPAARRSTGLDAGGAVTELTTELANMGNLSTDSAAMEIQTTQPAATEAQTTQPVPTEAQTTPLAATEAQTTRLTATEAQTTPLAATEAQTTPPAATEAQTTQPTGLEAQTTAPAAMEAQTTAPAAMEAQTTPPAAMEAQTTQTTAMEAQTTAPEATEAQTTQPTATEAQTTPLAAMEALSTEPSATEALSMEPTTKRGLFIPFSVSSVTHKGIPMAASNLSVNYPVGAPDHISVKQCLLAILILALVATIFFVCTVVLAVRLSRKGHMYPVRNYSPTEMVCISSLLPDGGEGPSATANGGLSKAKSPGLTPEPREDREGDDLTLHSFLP
As to conditions: previously determined values (Mehta et al., 1998); read-out: KD for binding to full-length neutrophil PSGL-1.

B1: soluble P-selectin: Soluble P-selectin of the literature study (Mehta et al., 1998) (protein, UniProt P16109 42-771, looked up)
extracellular domain: WTYHYSTKAYSWNISRKYCQNRYTDLVAIQNKNEIDYLNKVLPYYSSYYWIGIRKNNKTWTWVGTKKALTNEAENWADNEPNNKRNNEDCVEIYIKSPSAPGKWNDEHCLKKKHALCYTASCQDMSCSKQGECLETIGNYTCSCYPGFYGPECEYVRECGELELPQHVLMNCSHPLGNFSFNSQCSFHCTDGYQVNGPSKLECLASGIWTNKPPQCLAAQCPPLKIPERGNMTCLHSAKAFQHQSSCSFSCEEGFALVGPEVVQCTASGVWTAPAPVCKAVQCQHLEAPSEGTMDCVHPLTAFAYGSSCKFECQPGYRVRGLDMLRCIDSGHWSAPLPTCEAISCEPLESPVHGSMDCSPSLRAFQYDTNCSFRCAEGFMLRGADIVRCDNLGQWTAPAPVCQALQCQDLPVPNEARVNCSHPFGAFRYQSVCSFTCNEGLLLVGASVLQCLATGNWNSVPPECQAIPCTPLLSPQNGTMTCVQPLGSSSYKSTCQFICDEGYSLSGPERLDCTRSGRWTDSPPMCEAIKCPELFAPEQGSLDCSDTRGEFNVGSTCHFSCDNGFKLEGPNNVECTTSGRWSATPPTCKGIASLPTPGVQCPALTTPGQGTMYCRHHPGTFGFNTTCYFGCNAGFTLIGDSTLSCRPSGQWTAVTPACRAVKCSELHVNKPIAMNCSNLWGNFSYGSICSFHCLEGQLLNGSAQTACQENGHWSTTVPTCQAGPLTIQEA
modifications: extracellular domain
Turning to B1, the Kd (as a rule, the concentration at which binding is half-saturated) was 322 nM.
